Measurements: paper PMC11032447

Key:
Test in all cases: ITC; secretagogin construct in the cell (10-100 µM), partner in the syringe (80-1500 µM); 25 mM HEPES pH 8.0, 150 mM NaCl, 2 mM CaCl2; 20 °C; MicroCal iTC200; single-site binding model
[1] = biological target: mouse secretagogin (mouse) (UniProt Q91WD9)
[2] = biological target: mouse secretagogin V233A (mouse) (UniProt Q91WD9)
[3] = biological target: mouse secretagogin M229E (mouse) (UniProt Q91WD9)
[4] = biological target: mouse secretagogin L270A (mouse) (UniProt Q91WD9)
[5] = biological target: mouse secretagogin R198A (mouse) (UniProt Q91WD9)
[6] = biological target: mouse secretagogin M229A (mouse) (UniProt Q91WD9)
mouse secretagogin M229A (mouse), sequence (Q91WD9 whole entry M229A): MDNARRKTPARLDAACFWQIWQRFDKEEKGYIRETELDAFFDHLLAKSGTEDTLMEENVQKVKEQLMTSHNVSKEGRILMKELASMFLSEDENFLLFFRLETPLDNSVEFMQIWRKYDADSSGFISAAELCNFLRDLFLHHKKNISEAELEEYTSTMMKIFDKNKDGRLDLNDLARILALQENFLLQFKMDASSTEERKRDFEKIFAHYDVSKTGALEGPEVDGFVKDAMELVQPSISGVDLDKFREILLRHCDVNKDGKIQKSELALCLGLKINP

mouse secretagogin (mouse), sequence (Q91WD9 whole entry): as the sequence (Q91WD9 whole entry M229A) above, with A229M counted along it
mouse secretagogin M229E (mouse), sequence (Q91WD9 whole entry M229E): as the sequence (Q91WD9 whole entry M229A) above, with A229E counted along it
mouse secretagogin V233A (mouse), sequence (Q91WD9 whole entry V233A): as the sequence (Q91WD9 whole entry M229A) above, with A229M, V233A counted along it
mouse secretagogin R198A (mouse), sequence (Q91WD9 whole entry R198A): as the sequence (Q91WD9 whole entry M229A) above, with R198A, A229M counted along it
mouse secretagogin L270A (mouse), sequence (Q91WD9 whole entry L270A): as the sequence (Q91WD9 whole entry M229A) above, with A229M, L270A counted along it

Row | Substance | Kd [1] [µM] | Kd [2] [nM] | Kd [3] [µM] | Kd [4] [µM] | Kd [5] [nM] | Kd [6] [nM]
1 | Ha helix of the Habc domain of mouse syntaxin-4, His6-tagged (from UniProt P70452 1-298) (domain or fragment) | 6.67 |  |  |  |  | 
2 | Habc domain of mouse syntaxin-4, His6-tagged (from UniProt P70452 1-298) (domain or fragment) | 14.1 |  |  |  |  | 
3 | Hb helix of the Habc domain of mouse syntaxin-4, His6-tagged (domain or fragment) |  | 125 | 5.21 | 16.2 | 808 | 1620
